To fix the notation:
B1: Fab VH1-46_IGHD6-6*01_IGHJ1*01 & L6_IGKJ1*01 (Fab, V domains shown)
VH: QVQLVQSGAEVKKPGASVKVSCKASGYTFTSYYMHWVRQAPGQGLEWMGIINPSGGSTSYAQKFQGRVTMTRDTSTSTVYMELSSLRSEDTAVYYCAREEYSSSSAEYFQHWGQGTLVTVSS
VL: not shown
notes: Germline 'Hit' Fab; The VH was cloned into Plasmid A (CH1, His6 and Flag tags) and the kappa VL into Plasmid C (kappa CL); expressed in E. coli; also called Parent; parental
B2: Fab VH1-46_IGHD6-6*01_IGHJ1*01 S103A & L6_IGKJ1*01 (Fab, V domains shown)
VH: B1 VH with S103A
VL: not shown
notes: Fab; The VH was cloned into Plasmid A (CH1, His6 and Flag tags) and the kappa VL into Plasmid C (kappa CL); expressed in E. coli
B3: Fab VH1-46_IGHD6-6*01_IGHJ1*01 S103P & L6_IGKJ1*01 (Fab, V domains shown)
VH: B1 VH with S103P
VL: not shown
notes: as for B2
B4: Fab VH1-46_IGHD6-6*01_IGHJ1*01 S102A & L6_IGKJ1*01 (Fab, V domains shown)
VH: B1 VH with S102A
VL: not shown
notes: as for B2
B5: Fab VH1-46_IGHD6-6*01_IGHJ1*01 S102A/S103P/S104F/H111F/I51T/N52L/S54T/G56H & L6_IGKJ1*01 (Fab, V domains shown)
VH: B1 VH with I51T, N52L, S54T, G56H, S102A, S103P, S104F, H111F
VL: not shown
notes: Tested as Fab expressed in E. coli: VH cloned into plasmid A (CH1 constant region, His6 and Flag tags), kappa VL cloned into plasmid C (kappa CL); also called APFF TLTH; H:APFF TLTH
B6: Fab VH1-46_IGHD6-6*01_IGHJ1*01 S102A/S103P/S104F/H111F/I51T/N52L/P53W/S54T/G56H & L6_IGKJ1*01 (Fab, V domains shown)
VH: B1 VH with I51T, N52L, P53W, S54T, G56H, S102A, S103P, S104F, H111F
VL: not shown
notes: Tested as Fab expressed in E. coli (CH1 with His6/Flag tags from plasmid A; kappa CL from plasmid C); also called APFF TLWTH
B7: Fab VH1-46_IGHD6-6*01_IGHJ1*01 S102A/S103P/S104F/H111F/I51T/N52L/P53V/S54T/G56H & L6_IGKJ1*01 (Fab, V domains shown)
VH: B1 VH with I51T, N52L, P53V, S54T, G56H, S102A, S103P, S104F, H111F
VL: not shown
notes: Tested as Fab expressed in E. coli (CH1 with His6/Flag tags from plasmid A; kappa CL from plasmid C); also called APFF TLVTH
B8: Fab VH1-46_IGHD6-6*01_IGHJ1*01 S102A/S103P/S104F/H111F/I51T/N52L/P53N/S54T/G56H & L6_IGKJ1*01 (Fab, V domains shown)
VH: B1 VH with I51T, N52L, P53N, S54T, G56H, S102A, S103P, S104F, H111F
VL: not shown
notes: Tested as Fab expressed in E. coli (CH1 with His6/Flag tags from plasmid A; kappa CL from plasmid C); also called APFF TLNTH
B9: Fab VH1-46_IGHD6-6*01_IGHJ1*01 S102A/S103P/S104F/H111F/I51T/N52L/P53H/S54T/G56H & L6_IGKJ1*01 (Fab, V domains shown)
VH: B1 VH with I51T, N52L, P53H, S54T, G56H, S102A, S103P, S104F, H111F
VL: not shown
notes: Tested as Fab expressed in E. coli (CH1 with His6/Flag tags from plasmid A; kappa CL from plasmid C); also called APFF TLHTH
B10: Fab VH1-46_IGHD6-6*01_IGHJ1*01 S102A/S103P/S104F/H111F/I51T/N52L/P53A/S54T/G56H & L6_IGKJ1*01 (Fab, V domains shown)
VH: B1 VH with I51T, N52L, P53A, S54T, G56H, S102A, S103P, S104F, H111F
VL: not shown
notes: Tested as Fab expressed in E. coli (CH1 with His6/Flag tags from plasmid A; kappa CL from plasmid C); also called APFF TLATH
B11: Fab VH1-46_IGHD6-6*01_IGHJ1*01 S102A/S103P/S104F/H111F/I51T/N52L/P53Y/S54T/G56H & L6_IGKJ1*01 (Fab, V domains shown)
VH: B1 VH with I51T, N52L, P53Y, S54T, G56H, S102A, S103P, S104F, H111F
VL: not shown
notes: Tested as Fab expressed in E. coli (CH1 with His6/Flag tags from plasmid A; kappa CL from plasmid C); also called APFF TLYTH
B12: Fab VH1-46_IGHD6-6*01_IGHJ1*01 S102A/S103P/S104F/H111F/I51T/N52L/P53G/S54T/G56H & L6_IGKJ1*01 (Fab, V domains shown)
VH: B1 VH with I51T, N52L, P53G, S54T, G56H, S102A, S103P, S104F, H111F
VL: not shown
notes: Tested as Fab expressed in E. coli (CH1 with His6/Flag tags from plasmid A; kappa CL from plasmid C); also called APFF TLGTH
B13: Fab VH1-46_IGHD6-6*01_IGHJ1*01 S102A/S103P/S104F/H111F/I51T/N52L/P53R/S54T/G56H & L6_IGKJ1*01 (Fab, V domains shown)
VH: B1 VH with I51T, N52L, P53R, S54T, G56H, S102A, S103P, S104F, H111F
VL: not shown
notes: Tested as Fab expressed in E. coli (CH1 with His6/Flag tags from plasmid A; kappa CL from plasmid C); also called APFF TLRTH
B14: Fab VH1-46_IGHD6-6*01_IGHJ1*01 S102A/S103P/S104F/H111F/I51T/N52L/P53E/S54T/G56H & L6_IGKJ1*01 (Fab, V domains shown)
VH: B1 VH with I51T, N52L, P53E, S54T, G56H, S102A, S103P, S104F, H111F
VL: not shown
notes: Tested as Fab expressed in E. coli (CH1 with His6/Flag tags from plasmid A; kappa CL from plasmid C); also called APFF TLETH
B15: Fab VH1-46_IGHD6-6*01_IGHJ1*01 S102A/S103P/S104F/H111F/I51T/N52L/P53S/S54T/G56H & L6_IGKJ1*01 (Fab, V domains shown)
VH: B1 VH with I51T, N52L, P53S, S54T, G56H, S102A, S103P, S104F, H111F
VL: not shown
notes: Tested as Fab expressed in E. coli (CH1 with His6/Flag tags from plasmid A; kappa CL from plasmid C); also called APFF TLSTH
B16: Fab VH1-46_IGHD6-6*01_IGHJ1*01 S102A/S103P/S104F/H111F/I51T/N52L/P53M/S54T/G56H & L6_IGKJ1*01 (Fab, V domains shown)
VH: B1 VH with I51T, N52L, P53M, S54T, G56H, S102A, S103P, S104F, H111F
VL: not shown
notes: Tested as Fab expressed in E. coli (CH1 with His6/Flag tags from plasmid A; kappa CL from plasmid C); also called APFF TLMTH
B17: Fab VH1-46_IGHD6-6*01_IGHJ1*01 S102A/S103P/S104F/H111F/I51T/N52L/P53T/S54T/G56H & L6_IGKJ1*01 (Fab, V domains shown)
VH: B1 VH with I51T, N52L, P53T, S54T, G56H, S102A, S103P, S104F, H111F
VL: not shown
notes: Tested as Fab expressed in E. coli (CH1 with His6/Flag tags from plasmid A; kappa CL from plasmid C); also called APFF TLTTH
B18: Fab VH1-46_IGHD6-6*01_IGHJ1*01 S102A/S103P/S104F/H111F S54A & L6_IGKJ1*01 (Fab, V domains shown)
VH: B1 VH with S54A, S102A, S103P, S104F, H111F
VL: not shown
notes: Fab made in E. coli; CH1 with tags and kappa CL are not included; also called APFF S54A; H:APFF S54A

Residue numbers refer to the chain shown, from its start. In names and notes the source's numbering stands.

The target of one experiment is T1, Recombinant Human DLL4 (delta-like protein 4) (human, UniProt Q9NR61 27-529).
T1 construct: Bought recombinant protein (R&D Systems Cat#1506-D4/CF); also called rHuman DLL4; Delta-like 4
As to the kind of experiment: ECL (MSD) multispot assay; Fab 0.1 µM.
On to B1, for which the “ECL signal” value came to 7000 and the Signal/Noise is 40.9.
B2: the “ECL signal” value was determined as 7110 and the Signal/Noise is 31.6.
For B3, the “ECL signal” value came to 19300 and the Signal/Noise came out at 139.
On to B4, for which the “ECL signal” value amounted to 15800 and the Signal/Noise is 71.6.

A further experiment concerns the target T1, Recombinant Human DLL4 (delta-like …). As to the kind of experiment: ECL (MSD) multispot assay; Fab 0.01 µM.
Take B1: the “ECL signal” value was 1030 and the Signal/Noise worked out at 4.9.
On to B2, for which the “ECL signal” value is 1190 and the Signal/Noise is 4.5.
In the same order, the values of B3 are 4100 and 22.9.
B4: the “ECL signal” value is 2600 and the Signal/Noise came to 10.

For another experiment, the target named is T2, Recombinant Human DLL4 (human, UniProt Q9NR61 27-524).
T2 construct: Bought recombinant protein (R&D Systems Cat#1506-D4/CF), coated on the plate; also called delta-like protein 4; Delta-like 4
The experiment can be described thus: ECL 96-well plate binding assay, DLL4 immobilised, 10 nM Fab.
Regarding B5, the “ECL signal” value is 123000.
Still for that read-out and setting: the figure for B6 is 126000; for B7 it is 91500.
Same read-out and setting: the figure for B8 is 114000.
For B9, the “ECL signal” value is 108000.
The same measure, in the same setting: to B10 belongs 163000; to B11, 99500.
As to B12, the “ECL signal” value was found to be 103000.
Same read-out and setting: the figure for B13 is 63200; for B14 it is 91500; for B15 it is 135000.
Still for that read-out and setting: the figure for B16 is 105000; for B17 it is 125000.

Another experiment addresses T2, Recombinant Human DLL4. As to the kind of experiment: ELISA, DLL4 coated, 100 nM Fab.
Regarding B5, the “ELISA signal” value came out at 0.641.
Still for that read-out and setting: to B6 belongs 0.433.
Still for that read-out and setting: the figure for B7 is 0.035; for B8 it is 0.021; for B9 it is 0.287.
The same measure, in the same setting: the figure for B10 is 0.33; for B11 it is 0.274.
Turning to B12, the “ELISA signal” value came out at 0.018.
Still for that read-out and setting: the figure for B13 is 0.07; for B14 it is 0.017.
Same read-out and setting: the figure for B15 is 0.076.
On the same count and under the same terms, to B16 belongs 0.341.
Regarding B17, the “ELISA signal” value is 0.219.

In the next experiment the target is T3, Recombinant Human DLL4 (delta-like protein 4) (human, UniProt Q9NR61 27-529).
T3 construct: Bought recombinant human DLL4 (R&D Systems Cat#1506-D4/CF), coated on the plate; also called rHuman DLL4; Delta-like 4
As to the kind of experiment: ELISA on coated DLL4, 100 nM Fab. (An ELISA detects its analyte on a solid surface through an enzyme-linked reagent.)
On to B18, for which the “ELISA signal” value came out at 0.02.

Source of the values: patent publication US20120316071A1 (published 2012).
